Experimental data: patent US20210324054A1

These binders were tested against DN-IV quality control recombinant protein (produced by the company) (dengue virus) (assay: BLI, antibody on AMC sensor).

Binder	Kd	koff	kon
Mutation 1-23 (antibody, V domains shown) VH: EVQLQQPGPELVKPGASVKMSCKASGYTFTSYVIHWVRQKPGQGLEWIGYMNPYNDGLKYNEKFIGKAILTSDKSSSTAYMQLSSLTSEDSAVYYCTKEGLFYVFDYWGQGTSVTVSS VL: QIVLTQSPAIMSASPGEKVTMTCSATSSLSYMHWYQQKSGTSPKRWIYDSSKLASGVPVRFSGSGSGTSYSLTISSMEAEDAATYFCQQWRSDLPTFGAGTKLELKR	3.97 nM	0.00019 s⁻¹	47800 M⁻¹ s⁻¹
Mutation 1-25 (antibody, V domains shown) VH: EVQLQQPGPELVKPGASVKMSCKASGYTFTSSVIHWVRQKPGQGLEWIGYMNPYNDGLKYNEKFIGKAILTSDKSSSTAYMQLSSLTSEDSAVYYCTREGLFYVFDYWGQGTSVTVSS VL: QIVLTQSPAIMSASPGEKVTMTCSATSSISYMHWYQQKSGTSPKRWIYDSSKLASGVPVRFSGSGSGTSYSLTISSMEAEDAATYFCQWWRSDLPTFGAGTKLELKR	2.92 nM	0.00014 s⁻¹	47900 M⁻¹ s⁻¹
Mutation 1-34 (antibody, V domains shown) VH: EVQLQQPGPELVKPGASVKMSCKASGYTFTSSVIHWVRQKPGQGLEWIGYMNPYNDGIKYNEKFIGKAILTSDKSSSTAYMQLSSLTSEDSAVYYCTREGLFYVFDYWGQGTSVTVSS VL: QIVLTQSPAIMSASPGEKVTMTCSATSSLSYMHWYQQKSGTSPKRWIYDTSKLASGVPVRFSGSGSGTSYSLTISSMEAEDAATYFCQYWRSDLPTFGAGTKLELKR	2.89 nM	0.000112 s⁻¹	38700 M⁻¹ s⁻¹
Mutation 1-26 (antibody, V domains shown) VH: EVQLQQPGPELVKPGASVKMSCKASGYTFTSYVIHWVRQKPGQGLEWIGYMNPYNDGIKYNEKFIGKAILTSDKSSSTAYMQLSSLTSEDSAVYYCTREGLFYVMDYWGQGTSVTVSS VL: QIVLTQSPAIMSASPGEKVTMTCSATSSLSYMHWYQQKSGTSPKRWIYDTSKLASGVPVRFSGSGSGTSYSLTISSMEAEDAATYFCQWWRSDLPTFGAGTKLELKR	3.61 nM	0.000152 s⁻¹	42100 M⁻¹ s⁻¹
Mutation 1-37 (antibody, V domains shown) VH: EVQLQQPGPELVKPGASVKMSCKASGYTFTSSVIHWVRQKPGQGLEWIGYMNPYNDGIKYNEKFIGKAILTSDKSSSTAYMQLSSLTSEDSAVYYCTREGLFYVFDYWGQGTSVTVSS VL: QIVLTQSPAIMSASPGEKVTMTCSATSSVSYMHWYQQKSGTSPKRWIYDTSKLASGVPVRFSGSGSGTSYSLTISSMEAEDAATYFCQYWRSDLPTFGAGTKLELKR	3.63 nM	0.000145 s⁻¹	39900 M⁻¹ s⁻¹
Mutation 1-24 (antibody, V domains shown) VH: EVQLQQPGPELVKPGASVKMSCKASGYTFTSTVIHWVRQKPGQGLEWIGYMNPYNDGIKYNEKFIGKAILTSDKSSSTAYMQLSSLTSEDSAVYYCTREGLFYVMDYWGQGTSVTVSS VL: QIVLTQSPAIMSASPGEKVTMTCSATSSVSYMHWYQQKSGTSPKRWIYDTSKLASGVPVRFSGSGSGTSYSLTISSMEAEDAATYFCQYWRSDLPTFGAGTKLELKR	2.85 nM	0.000133 s⁻¹	46600 M⁻¹ s⁻¹
Mutation 1-40 (antibody, V domains shown) VH: EVQLQQPGPELVKPGASVKMSCKASGYTFTSSVIHWVRQKPGQGLEWIGYMNPYNDGLKYNEKFIGKAILTSDKSSSTAYMQLSSLTSEDSAVYYCTKEGLFYVFDYWGQGTSVTVSS VL: QIVLTQSPAIMSASPGEKVTMTCSATSSVSYMHWYQQKSGTSPKRWIYDTSKLASGVPVRFSGSGSGTSYSLTISSMEAEDAATYFCQYWRSDLPTFGAGTKLELKR	0.671 nM	0.000261 s⁻¹	389000 M⁻¹ s⁻¹
Mutation 1-27 (antibody, V domains shown) VH: EVQLQQPGPELVKPGASVKMSCKASGYTFTSTVIHWVRQKPGQGLEWIGYMNPYNDGLKYNEKFIGKAILTSDKSSSTAYMQLSSLTSEDSAVYYCTREGLFYVFDYWGQGTSVTVSS VL: QIVLTQSPAIMSASPGEKVTMTCSATSSVSYMHWYQQKSGTSPKRWIYDSSKLASGVPVRFSGSGSGTSYSLTISSMEAEDAATYFCQQWRSDLPTFGAGTKLELKR	3.55 nM	0.000149 s⁻¹	42000 M⁻¹ s⁻¹
Mutation 1-39 (antibody, V domains shown) VH: EVQLQQPGPELVKPGASVKMSCKASGYTFTSTVIHWVRQKPGQGLEWIGYMNPYNDGIKYNEKFIGKAILTSDKSSSTAYMQLSSLTSEDSAVYYCTREGLFYVFDYWGQGTSVTVSS VL: QIVLTQSPAIMSASPGEKVTMTCSATSSLSYMHWYQQKSGTSPKRWIYDSSKLASGVPVRFSGSGSGTSYSLTISSMEAEDAATYFCQQWRSDLPTFGAGTKLELKR	4.55 nM	0.000186 s⁻¹	40900 M⁻¹ s⁻¹
Mutation 1-30 (antibody, V domains shown) VH: EVQLQQPGPELVKPGASVKMSCKASGYTFTSTVIHWVRQKPGQGLEWIGYMNPYNDGLKYNEKFIGKAILTSDKSSSTAYMQLSSLTSEDSAVYYCTREGLFYVMDYWGQGTSVTVSS VL: QIVLTQSPAIMSASPGEKVTMTCSATSSLSYMHWYQQKSGTSPKRWIYDTSKLASGVPVRFSGSGSGTSYSLTISSMEAEDAATYFCQYWRSDLPTFGAGTKLELKR	3.12 nM	0.000132 s⁻¹	42300 M⁻¹ s⁻¹

Further lines, results first:

Kd	koff	kon	Binder
0.579 nM	0.00023 s⁻¹	397000 M⁻¹ s⁻¹	Mutation 1-31 (antibody, V domains shown) VH: EVQLQQPGPELVKPGASVKMSCKASGYTFTSSVIHWVRQKPGQGLEWIGYMNPYNDGIKYNEKFIGKAILTSDKSSSTAYMQLSSLTSEDSAVYYCTREGLFYVFDYWGQGTSVTVSS VL: QIVLTQSPAIMSASPGEKVTMTCSATSSVSYMHWYQQKSGTSPKRWIYDSSKLASGVPVRFSGSGSGTSYSLTISSMEAEDAATYFCQWWRSDLPTFGAGTKLELKR
0.532 nM	0.000209 s⁻¹	393000 M⁻¹ s⁻¹	Mutation 1-42 (antibody, V domains shown) VH: EVQLQQPGPELVKPGASVKMSCKASGYTFTSTVIHWVRQKPGQGLEWIGYMNPYNDGIKYNEKFIGKAILTSDKSSSTAYMQLSSLTSEDSAVYYCTREGLFYVFDYWGQGTSVTVSS VL: QIVLTQSPAIMSASPGEKVTMTCSATSSLSYMHWYQQKSGTSPKRWIYDTSKLASGVPVRFSGSGSGTSYSLTISSMEAEDAATYFCQQWRSDLPTFGAGTKLELKR
0.591 nM	0.000259 s⁻¹	438000 M⁻¹ s⁻¹	Mutation 1-28 (antibody, V domains shown) VH: EVQLQQPGPELVKPGASVKMSCKASGYTFTSSVIHWVRQKPGQGLEWIGYMNPYNDGIKYNEKFIGKAILTSDKSSSTAYMQLSSLTSEDSAVYYCTKEGLFYVMDYWGQGTSVTVSS VL: QIVLTQSPAIMSASPGEKVTMTCSATSSVSYMHWYQQKSGTSPKRWIYDTSKLASGVPVRFSGSGSGTSYSLTISSMEAEDAATYFCQYWRSDLPTFGAGTKLELKR
0.661 nM	0.000252 s⁻¹	381000 M⁻¹ s⁻¹	Mutation 1-35 (antibody, V domains shown) VH: EVQLQQPGPELVKPGASVKMSCKASGYTFTSYVIHWVRQKPGQGLEWIGYMNPYNDGLKYNEKFIGKAILTSDKSSSTAYMQLSSLTSEDSAVYYCTKEGLFYVMDYWGQGTSVTVSS VL: QIVLTQSPAIMSASPGEKVTMTCSATSSVSYMHWYQQKSGTSPKRWIYDSSKLASGVPVRFSGSGSGTSYSLTISSMEAEDAATYFCQWWRSDLPTFGAGTKLELKR
0.657 nM	0.000282 s⁻¹	429000 M⁻¹ s⁻¹	Mutation 1-36 (antibody, V domains shown) VH: EVQLQQPGPELVKPGASVKMSCKASGYTFTSTVIHWVRQKPGQGLEWIGYMNPYNDGLKYNEKFIGKAILTSDKSSSTAYMQLSSLTSEDSAVYYCTREGLFYVFDYWGQGTSVTVSS VL: QIVLTQSPAIMSASPGEKVTMTCSATSSLSYMHWYQQKSGTSPKRWIYDSSKLASGVPVRFSGSGSGTSYSLTISSMEAEDAATYFCQQWRSDLPTFGAGTKLELKR
0.493 nM	0.000178 s⁻¹	361000 M⁻¹ s⁻¹	Mutation 1-29 (antibody, V domains shown) VH: EVQLQQPGPELVKPGASVKMSCKASGYTFTSYVIHWVRQKPGQGLEWIGYMNPYNDGIKYNEKFIGKAILTSDKSSSTAYMQLSSLTSEDSAVYYCTREGLFYVFDYWGQGTSVTVSS VL: QIVLTQSPAIMSASPGEKVTMTCSATSSISYMHWYQQKSGTSPKRWIYDSSKLASGVPVRFSGSGSGTSYSLTISSMEAEDAATYFCQWWRSDLPTFGAGTKLELKR
0.631 nM	0.000221 s⁻¹	350000 M⁻¹ s⁻¹	Mutation 1-32 (antibody, V domains shown) VH: EVQLQQPGPELVKPGASVKMSCKASGYTFTSYVIHWVRQKPGQGLEWIGYMNPYNDGIKYNEKFIGKAILTSDKSSSTAYMQLSSLTSEDSAVYYCTKEGLFYVMDYWGQGTSVTVSS VL: QIVLTQSPAIMSASPGEKVTMTCSATSSVSYMHWYQQKSGTSPKRWIYDTSKLASGVPVRFSGSGSGTSYSLTISSMEAEDAATYFCQQWRSDLPTFGAGTKLELKR
0.643 nM	0.000292 s⁻¹	454000 M⁻¹ s⁻¹	Mutation 1-38 (antibody, V domains shown) VH: EVQLQQPGPELVKPGASVKMSCKASGYTFTSYVIHWVRQKPGQGLEWIGYMNPYNDGLKYNEKFIGKAILTSDKSSSTAYMQLSSLTSEDSAVYYCTKEGLFYVMDYWGQGTSVTVSS VL: QIVLTQSPAIMSASPGEKVTMTCSATSSISYMHWYQQKSGTSPKRWIYDSSKLASGVPVRFSGSGSGTSYSLTISSMEAEDAATYFCQWWRSDLPTFGAGTKLELKR
0.56 nM	0.000276 s⁻¹	493000 M⁻¹ s⁻¹	Mutation 1-33 (antibody, V domains shown) VH: EVQLQQPGPELVKPGASVKMSCKASGYTFTSTVIHWVRQKPGQGLEWIGYMNPYNDGLKYNEKFIGKAILTSDKSSSTAYMQLSSLTSEDSAVYYCTREGLFYVFDYWGQGTSVTVSS VL: QIVLTQSPAIMSASPGEKVTMTCSATSSISYMHWYQQKSGTSPKRWIYDSSKLASGVPVRFSGSGSGTSYSLTISSMEAEDAATYFCQWWRSDLPTFGAGTKLELKR
0.455 nM	0.00016 s⁻¹	352000 M⁻¹ s⁻¹	Mutation 1-41 (antibody, V domains shown) VH: EVQLQQPGPELVKPGASVKMSCKASGYTFTSYVIHWVRQKPGQGLEWIGYMNPYNDGIKYNEKFIGKAILTSDKSSSTAYMQLSSLTSEDSAVYYCTREGLFYVMDYWGQGTSVTVSS VL: QIVLTQSPAIMSASPGEKVTMTCSATSSISYMHWYQQKSGTSPKRWIYDSSKLASGVPVRFSGSGSGTSYSLTISSMEAEDAATYFCQWWRSDLPTFGAGTKLELKR
